Measured values as given in article PMC5481773 (2017).

B1: p21 PIP box peptide used for ITC (peptide)
chain: RKRRQTSMTDFYHSK
modifications: Exact limits are in the supplement. Window is the 15-mer homologous to ZRANB3 515-529, aligned on Q144. Check residues are not named in the paper. Termini chemistry not stated.
B2: Polι PIP box peptide used for ITC (peptide)
chain: NTAKKGLIDYYLMPS
modifications: Exact limits are in the supplement. Window is the 15-mer homologous to ZRANB3 515-529 (equal lengths stated); the PIP box KGLIDYYL is 421-428 in 715-aa numbering, +25 in the 740-aa entry. Check residues are not named in the paper. Termini chemistry not stated.
B3: FEN1 PIP box peptide used for ITC (peptide)
chain: QGSTQGRLDDFFKVT
modifications: Exact limits are in the supplement. Window is the 15-mer homologous to ZRANB3 515-529, aligned on Q337. Termini chemistry not stated.

These binders were tested against His-tagged Proliferating Cell Nuclear Antigen (PCNA) (human, UniProt P12004 1-261) (assay: ITC).
Sequence of His-tagged Proliferating Cell Nuclear Antigen (PCNA) (P12004 whole entry): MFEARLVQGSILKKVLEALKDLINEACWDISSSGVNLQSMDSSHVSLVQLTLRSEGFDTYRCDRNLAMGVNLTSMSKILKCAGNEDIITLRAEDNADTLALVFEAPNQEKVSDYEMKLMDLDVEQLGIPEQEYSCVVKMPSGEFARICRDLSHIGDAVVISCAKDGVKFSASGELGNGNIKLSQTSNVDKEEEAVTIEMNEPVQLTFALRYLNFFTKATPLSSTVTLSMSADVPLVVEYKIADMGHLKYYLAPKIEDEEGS

Row | Kd [µM] | Binder
1 | 0.275 | B1
2 | 5.45 | B2
3 | 17.3 | B3
